Patent US20040213795A1

Biological target: Human PD-1 fusion protein (human) (UniProt Q15116)
Assay: ELISA on coated human PD-1/IgG chimera (2.5 ug/ml), HRP anti-murine antibody

Human PD-1 fusion protein (human), sequence (Q15116 other isoform, or with tags, fused parts or gaps): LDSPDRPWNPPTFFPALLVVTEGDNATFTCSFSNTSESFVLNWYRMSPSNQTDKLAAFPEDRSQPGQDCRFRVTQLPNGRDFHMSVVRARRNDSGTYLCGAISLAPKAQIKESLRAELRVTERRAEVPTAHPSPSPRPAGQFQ

EC50 (read off the curve): 1 µg/mL
Substance: Murine anti-human PD-1 antibody J110
